Assay results: patent US20250019450A1 (DIAGONAL THERAPEUTICS, published 2025)

Target: human IL-12 receptor (IL-12Rβ1 and IL-12Rβ2) on HEK-Blue IL-12 cells (human, UniProt P42701 24-662; Q99665 24-862)
Assay: cell-based or functional assay

Chain of human IL-12 receptor (IL-12Rβ1 and IL-12Rβ2) on HEK-Blue IL-12 cells (Q99665 24-862, chain 2 of 2, other chains not shown): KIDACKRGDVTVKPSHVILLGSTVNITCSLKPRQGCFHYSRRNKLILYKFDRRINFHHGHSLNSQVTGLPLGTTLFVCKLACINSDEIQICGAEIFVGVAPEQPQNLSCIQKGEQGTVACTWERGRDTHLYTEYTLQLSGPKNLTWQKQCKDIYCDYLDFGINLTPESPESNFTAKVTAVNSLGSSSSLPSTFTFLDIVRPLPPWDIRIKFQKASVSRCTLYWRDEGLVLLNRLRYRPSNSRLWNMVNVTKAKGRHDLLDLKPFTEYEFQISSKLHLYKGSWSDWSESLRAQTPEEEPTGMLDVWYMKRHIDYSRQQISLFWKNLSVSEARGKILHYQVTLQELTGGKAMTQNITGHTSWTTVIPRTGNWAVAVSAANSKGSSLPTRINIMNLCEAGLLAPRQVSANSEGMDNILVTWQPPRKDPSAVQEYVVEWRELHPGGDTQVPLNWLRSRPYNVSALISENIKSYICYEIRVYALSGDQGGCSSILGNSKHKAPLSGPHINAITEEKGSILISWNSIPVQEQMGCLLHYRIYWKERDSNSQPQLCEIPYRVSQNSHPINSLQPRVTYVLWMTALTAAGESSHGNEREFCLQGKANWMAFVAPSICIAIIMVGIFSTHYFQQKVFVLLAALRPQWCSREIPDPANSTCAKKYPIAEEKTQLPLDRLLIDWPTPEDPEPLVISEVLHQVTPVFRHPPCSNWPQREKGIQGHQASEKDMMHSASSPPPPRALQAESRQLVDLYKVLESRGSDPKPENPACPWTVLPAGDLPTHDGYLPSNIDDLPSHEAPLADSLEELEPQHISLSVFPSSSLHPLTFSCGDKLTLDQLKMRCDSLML

| Max Absorbance | Binder |
| --- | --- |
| 0.23 | DGL604 (bispecific antibody, V domains shown) V domain 1: QVQLVESGGGLVQAGGSLRLSCAASRSISSFNEMAWYRQAPGEQRELVATIVSTVGFTNYADSVKGRFTISRDNAKNTVYLQMNSLKAEDTAVYYCNARRISTDYWGQGTQVTVEP V domain 2: QLQLVESGGGLVQAGGSLRLSCAASGRTFGIHGMGWFRQAPGKEREFAAAIRWSDGTTIHADSVKGRLTISRDNAKNTVYLQMNSLKPEDTAVYYCAATSNPQFGRNWYTVAAGVEYGYWGQGTQVTVEP |
| 0.22 | DGL442 (bispecific antibody, human IgG1, lambda) heavy 1: not shown heavy 2: QVHLQESGPGLVKPSETLSLTCTVSGGSISYYYWNWIRQPPGKGLEWIASIYNSGNINYNPSLKSRVTISVDTSKNQFSLKLTSVTAADTAVYYCARGGYSYGYFDNWGQGILVTVSSASTKGPSVFPLAPSSKSTSGGTAALGCLVKDYFPEPVTVSWNSGALTSGVHTFPAVLQSSGLYSLSSVVTVPSSSLGTQTYICNVNHKPSNTKVDKKVEPKSCDKTHTCPPCPAPEAAGAPSVFLFPPKPKDTLMISRTPEVTCVVVDVSHEDPEVKFNWYVDGVEVHNAKTKPREEQYNSTYRVVSVLTVLHQDWLNGKEYKCKVSNKALPAPIEKTISKAKGQPREPQVCTLPPSRDELTKNQVSLSCAVKGFYPSDIAVEWESNGQPENNYKTTPPVLDSDGSFFLVSKLTVDKSRWQQGNVFSCSVMHEALHNRFTQKSLSLSPG light: SYELTQPPSVSVSPGQTASITCSGRELGNKYAYWYQQKPGQSPVLVIYEDYKRPSGIPERFSGSNSGNTATLTISGTQAMDEADYYCQAWDSSTVIFGGGTKLTVLGQPKAAPSVTLFPPSSEELQANKATLVCLISDFYPGAVTVAWKADSSPVKAGVETTTPSKQSNNKYAASSYLSLTPEQWKSHRSYSCQVTHEGSTVEKTVAPTECS |
| 0.25 | DGL427 (bispecific antibody, human IgG1, kappa) heavy 1: not shown heavy 2: EVLLVESGGGLVKPGGSLRLSCAASGFTFSSYSMNWVRQAPGKGLEWVSSISSSSDYIHYADSVRGRFTISRDNAKNSLYLQMNSLRAEDTAVYYCARSELGFDYWGQGTLVTVSSASTKGPSVFPLAPSSKSTSGGTAALGCLVKDYFPEPVTVSWNSGALTSGVHTFPAVLQSSGLYSLSSVVTVPSSSLGTQTYICNVNHKPSNTKVDKKVEPKSCDKTHTCPPCPAPEAAGAPSVFLFPPKPKDTLMISRTPEVTCVVVDVSHEDPEVKFNWYVDGVEVHNAKTKPREEQYNSTYRVVSVLTVLHQDWLNGKEYKCKVSNKALPAPIEKTISKAKGQPREPQVCTLPPSRDELTKNQVSLSCAVKGFYPSDIAVEWESNGQPENNYKTTPPVLDSDGSFFLVSKLTVDKSRWQQGNVFSCSVMHEALHNRFTQKSLSLSPG light: DIQMTQSPSSVSASVGDRVTITCRASQGISIWLAWYQQKPGKAPKPLIYAASSLQSGVPSRFSGSGSGTDFTLTISSLQPEDFATYYCQQANSFPLTFGGGTKVEIKRTVAAPSVFIFPPSDEQLKSGTASVVCLLNNFYPREAKVQWKVDNALQSGNSQESVTEQDSKDSTYSLSSTLTLSKADYEKHKVYACEVTHQGLSSPVTKSFNRGEC |
| 0.21 | DGL525 (bispecific antibody, V domains shown) V domain 1: EVQLVESGGGLVQPGGSLRLFCAASRSIFNINIMGWYRQAPGKQREWLASITSGGSTFYADSVKDRFTISRDSVKNTVYLQMNSLKPEDTAAYYCNRYRSVPLNTVYPWGQGTLVTVEP V domain 2: QVQLVESGGGLVQAGGSLRLSCAASGRTFSSYAMGWFRQAPGKEREFVSAISWSGLSTYYVESVQGRFTISRDNAKNTVYLQMNSLKPEDTAVYYCAASRIYTNYVARSYEYDDWGQGTQVTVEP |
| 0.17 | DGL407 (bispecific antibody, human IgG1, kappa) heavy 1: not shown heavy 2: QVQLVESGGGLVRPGGSLRLSCAASGFTFSSNGMHWFRQAPGKGLEWVSSIGSGGTSIYYADSVKGRFTISRDNAKNTLYLQMNSLKSDDTAVYYCSKEVTGATRGQGTQVTVEPKSSDKTHTCPPCPAPEAAGAPSVFLFPPKPKDTLMISRTPEVTCVVVDVSHEDPEVKFNWYVDGVEVHNAKTKPREEQYNSTYRVVSVLTVLHQDWLNGKEYKCKVSNKALPAPIEKTISKAKGQPREPQVCTLPPSRDELTKNQVSLSCAVKGFYPSDIAVEWESNGQPENNYKTTPPVLDSDGSFFLVSKLTVDKSRWQQGNVFSCSVMHEALHNRFTQKSLSLSPG light: not shown |
| 0.19 | DGL425 (bispecific antibody, human IgG1, kappa) heavy 1: not shown heavy 2: EVQLVQSGTEVKKPGESLKISCKGSGYSFTSYWIGWVRQMPGKGLEWMGNIYPGDSDTRYSPSFQGHVTISADKSISTAYLQWSSLKASDTAMYYCARRGGGYWGQGTLVTVSSASTKGPSVFPLAPSSKSTSGGTAALGCLVKDYFPEPVTVSWNSGALTSGVHTFPAVLQSSGLYSLSSVVTVPSSSLGTQTYICNVNHKPSNTKVDKKVEPKSCDKTHTCPPCPAPEAAGAPSVFLFPPKPKDTLMISRTPEVTCVVVDVSHEDPEVKFNWYVDGVEVHNAKTKPREEQYNSTYRVVSVLTVLHQDWLNGKEYKCKVSNKALPAPIEKTISKAKGQPREPQVCTLPPSRDELTKNQVSLSCAVKGFYPSDIAVEWESNGQPENNYKTTPPVLDSDGSFFLVSKLTVDKSRWQQGNVFSCSVMHEALHNRFTQKSLSLSPG light: not shown |

The next lines start with the binder.

| Binder | Max Absorbance |
| --- | --- |
| DGL415 (bispecific antibody, human IgG1, kappa) heavy 1: not shown heavy 2: QVQLVESGGGLVQAGGSLRLSCAASGRTFSRYRMGWFRQAPGKEREFVAAITKSGATTYDADSVKGRFTISRDNAKNTLYLQMNSLKPEDTAVYYCAASYHSNWWPKNADEYAYWGQGTQVTVEPKSSDKTHTCPPCPAPEAAGAPSVFLFPPKPKDTLMISRTPEVTCVVVDVSHEDPEVKFNWYVDGVEVHNAKTKPREEQYNSTYRVVSVLTVLHQDWLNGKEYKCKVSNKALPAPIEKTISKAKGQPREPQVCTLPPSRDELTKNQVSLSCAVKGFYPSDIAVEWESNGQPENNYKTTPPVLDSDGSFFLVSKLTVDKSRWQQGNVFSCSVMHEALHNRFTQKSLSLSPG light: not shown | 0.23 |
| DGL400 (bispecific antibody, human IgG1, kappa) heavy 1: not shown heavy 2: QVQLVESGGGLVQAGGSLRLSCAASGRTFSRYRMGWFRQAPGKEREFVAAITKSGATTYDADSVKGRFTISRDNAKNTLYLQMNSLKPEDTAVYYCAASYHSNWWPKNADEYAYWGQGTQVTVEPKSSDKTHTCPPCPAPEAAGAPSVFLFPPKPKDTLMISRTPEVTCVVVDVSHEDPEVKFNWYVDGVEVHNAKTKPREEQYNSTYRVVSVLTVLHQDWLNGKEYKCKVSNKALPAPIEKTISKAKGQPREPQVCTLPPSRDELTKNQVSLSCAVKGFYPSDIAVEWESNGQPENNYKTTPPVLDSDGSFFLVSKLTVDKSRWQQGNVFSCSVMHEALHNRFTQKSLSLSPG light: DIQLTQSPSFLSASVGDRVTITCRASQGISSYLAWYQQKPGKAPKVLIYAASTLQSGVPSRFSGSGSGTEFTLTISSLLPEDFATYFCQQLHRYPYTFGQGAKLEIKRTVAAPSVFIFPPSDEQLKSGTASVVCLLNNFYPREAKVQWKVDNALQSGNSQESVTEQDSKDSTYSLSSTLTLSKADYEKHKVYACEVTHQGLSSPVTKSFNRGEC | 0.21 |
| DGL430 (bispecific antibody, human IgG1, lambda) heavy 1: not shown heavy 2: QVHLQESGPGLVKPSETLSLTCTVSGGSISYYYWNWIRQPPGKGLEWIASIYNSGNINYNPSLKSRVTISVDTSKNQFSLKLTSVTAADTAVYYCARGGYSYGYFDNWGQGILVTVSSASTKGPSVFPLAPSSKSTSGGTAALGCLVKDYFPEPVTVSWNSGALTSGVHTFPAVLQSSGLYSLSSVVTVPSSSLGTQTYICNVNHKPSNTKVDKKVEPKSCDKTHTCPPCPAPEAAGAPSVFLFPPKPKDTLMISRTPEVTCVVVDVSHEDPEVKFNWYVDGVEVHNAKTKPREEQYNSTYRVVSVLTVLHQDWLNGKEYKCKVSNKALPAPIEKTISKAKGQPREPQVCTLPPSRDELTKNQVSLSCAVKGFYPSDIAVEWESNGQPENNYKTTPPVLDSDGSFFLVSKLTVDKSRWQQGNVFSCSVMHEALHNRFTQKSLSLSPG light: SYELTQPPSVSVSPGQTASITCSGRELGNKYAYWYQQKPGQSPVLVIYEDYKRPSGIPERFSGSNSGNTATLTISGTQAMDEADYYCQAWDSSTVIFGGGTKLTVLGQPKAAPSVTLFPPSSEELQANKATLVCLISDFYPGAVTVAWKADSSPVKAGVETTTPSKQSNNKYAASSYLSLTPEQWKSHRSYSCQVTHEGSTVEKTVAPTECS | 0.21 |
| DGL443 (bispecific antibody, human IgG1, lambda) heavy 1: not shown heavy 2: QVTLRESGPALVKPTQTLTLTCTFSGFSLSTSGMCVSWIRQPPGKALEWLALIYWDDDKYYSTSLKTRLTISKDTSKNQVVLTMTNMDPVDTATYYCARMRRGIEAFDIWGQGTMVTVFSASTKGPSVFPLAPSSKSTSGGTAALGCLVKDYFPEPVTVSWNSGALTSGVHTFPAVLQSSGLYSLSSVVTVPSSSLGTQTYICNVNHKPSNTKVDKKVEPKSCDKTHTCPPCPAPEAAGAPSVFLFPPKPKDTLMISRTPEVTCVVVDVSHEDPEVKFNWYVDGVEVHNAKTKPREEQYNSTYRVVSVLTVLHQDWLNGKEYKCKVSNKALPAPIEKTISKAKGQPREPQVCTLPPSRDELTKNQVSLSCAVKGFYPSDIAVEWESNGQPENNYKTTPPVLDSDGSFFLVSKLTVDKSRWQQGNVFSCSVMHEALHNRFTQKSLSLSPG light: QSVLTQPPSVSGAPGQRVTISCTGSSSNIGAGYDVHWYQQLPGTAPKLLIFGYSNRPSGVPVRFSGSKSGTSASLAITGLLAEDEADFYCQSFDISLTGWVFGGGTKLTVLGQPKAAPSVTLFPPSSEELQANKATLVCLISDFYPGAVTVAWKADSSPVKAGVETTTPSKQSNNKYAASSYLSLTPEQWKSHRSYSCQVTHEGSTVEKTVAPTECS | 0.24 |
| DGL547 (bispecific antibody, V domains shown) V domain 1: EVQLVESGGGLVQPGGSLRLSCAASGFTLDYYAIGWFRQAPGKEREGVSCISSSDRSTWYADSVKGRFTISRDNAKNTVYLQMHSLKPEDTAVYYCATPCYSDYDPEGYEYDYWGQGTQVTVEP V domain 2: QLQLVESGGGLVQAGGSLRLSCAASGLTFSGYTVGWFRQAPGKEREFVAAINWSSAYTYSEFVKGRFTISRDNAKNTVYLQMSSLKPEDTAVYYCAAQRSRTSWYASTAEAYDYWGQGTQVTVEP | 0.18 |
| DGL440 (bispecific antibody, human IgG1, lambda) heavy 1: not shown heavy 2: QVQLVQPGAEVKKPGASVKVSCKASGYTFTGYYMHWVRQAPGQGLEWMGWINPKSGGTNYAQKFQGRVTMTRDTSISTAYMELTRLRSDDTAVYYCARDQGYGDYVLKHWGQGTLVTVSSASTKGPSVFPLAPSSKSTSGGTAALGCLVKDYFPEPVTVSWNSGALTSGVHTFPAVLQSSGLYSLSSVVTVPSSSLGTQTYICNVNHKPSNTKVDKKVEPKSCDKTHTCPPCPAPEAAGAPSVFLFPPKPKDTLMISRTPEVTCVVVDVSHEDPEVKFNWYVDGVEVHNAKTKPREEQYNSTYRVVSVLTVLHQDWLNGKEYKCKVSNKALPAPIEKTISKAKGQPREPQVCTLPPSRDELTKNQVSLSCAVKGFYPSDIAVEWESNGQPENNYKTTPPVLDSDGSFFLVSKLTVDKSRWQQGNVFSCSVMHEALHNRFTQKSLSLSPG light: SYVLTQPPSVSVAPGQTARITCGGDNIGSKSVHWYQQKPGQAPVPVVYDDSDRPSGIPERFSGSNSGNTATLTISRVEAGDEADYYCQVWDSSSDHVVFGGGTKLTVLGQPKAAPSVTLFPPSSEELQANKATLVCLISDFYPGAVTVAWKADSSPVKAGVETTTPSKQSNNKYAASSYLSLTPEQWKSHRSYSCQVTHEGSTVEKTVAPTECS | 0.22 |
